The record followed here is US20240026017A1 (Kyowa Kirin, published 2024).

For this assay, the target named is T1, human CC chemokine receptor 1 (human CCR1) (human, UniProt P32246 1-355).
T1 construct: endogenous on THP-1 cells in the migration assays; also called hCCR1; CHO-S-hCCR1 (expressing cells)
T1 sequence: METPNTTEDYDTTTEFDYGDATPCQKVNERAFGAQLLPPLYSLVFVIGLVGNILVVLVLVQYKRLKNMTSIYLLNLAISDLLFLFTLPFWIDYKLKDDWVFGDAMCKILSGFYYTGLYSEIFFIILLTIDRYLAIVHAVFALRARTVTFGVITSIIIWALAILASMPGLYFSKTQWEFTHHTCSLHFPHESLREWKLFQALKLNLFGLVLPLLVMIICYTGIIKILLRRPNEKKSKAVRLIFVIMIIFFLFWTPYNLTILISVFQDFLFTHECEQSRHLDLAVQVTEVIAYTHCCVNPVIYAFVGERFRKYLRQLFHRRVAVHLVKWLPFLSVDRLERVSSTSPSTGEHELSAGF
In words: flow cytometry on CHO-S-hCCR1 cells; bound = fluorescence 10 times or more that of isotype control hzDNP1. Here is the method:
The antigen affinity of the chKM5908′ antibody, which is a VL-substituted chimeric antibody, was measured by flow cytometry using the CHO-S-hCCR1 cells produced in Example 2. The cells were collected by centrifugation, the supernatant was removed, and the cells were suspended in PBS (Staining Medium, hereinafter, abbreviated as SM) containing 2% fetal bovine serum (FBS), 0.05% NaN₃, and 1 mM EDTA. Next, the cells were seeded in a 96-well plate so that the number of cells is 1×10⁵ per well, and the chKM5908′ antibody was added at each final concentration of 10,000, 2,000, 400, 80, 16, and 3.2 ng/mL, and the reaction was performed at 4° C. for 60 minutes. After washing the cells with SM, Goat F (ab′)₂ Anti-Human IgG PE (γ chain specific) (Southern Biotech) diluted 500-fold with SM was added and reacted at 4° C. for 60 minutes. After washing the cells with SM, the cells were resuspended in 50 μL of SM, and the fluorescence intensity was measured by the flow cytometry (FACS Canto II, BD Biosciences).
Next, a modified antibody was obtained using the method described in Example 12-(3). […] Hereinafter referred to as hzDNP1)] were determined to bind to the human CCR1.
Background: A flow cytometer gives signals particle by particle.

B1: hzKM5907 LV2bHV2a antibody (antibody, V domains shown)
VH: EVQLLESGGGLVQPGGSLRLSCAASGFTFSRYGMSWVRQAPGKRLEWVSSISATFTYTYYTDNVKGRFTISRDNSKNTLYLQMNSLRAEDTAVYYCARQDNYAWFDSWGQGTLVTVSS
VL: DIVMTQTPLSLPVTSGEPVSISCRSSQSIVHSNGNTFLEWYLKKPGQSPQLLIYKVSSRFSGVPDRFSGSGSGTDFTLKISRVEAEDVGVYYCFQGSHIPWTFGGGTKVEIK
notes: humanized; also called hzmAb5907 LV2bHV2a
Consider B1, for which the binding result is reported as “binds”.

B2: hzKM5907 LV1aHV7 antibody (antibody, V domains shown)
VH: EVQVLESGGGLVQPGGSLRLSCAASGFTFSRYGMSWVRQAPGKRLEWVASISATFTYTYYTDNVKGRFTISRDNSKNTLYLQMNSLRAEDTGMYYCTRQDNYAWFDSWGQGTLVTVSS
VL: DIVMTQTPLSLPVTSGEPASISCRSSQSIVHSNGNTFLEWYLKKPGQSPQLLIYKVSSRFSGVPDRFSGSGSGTDFTLKISRVEAEDVGVYYCFQGSHIPWTFGGGTKVEIK
notes: humanized; also called hzmAb5907 LV1aHV7
Turning to B2, the binding result is “binds”.

B3: hzKM5907 LV2aHV0 antibody (antibody, V domains shown)
VH: EVQLLESGGGLVQPGGSLRLSCAASGFTFSRYGMSWVRQAPGKGLEWVSSISATFTYTYYTDNVKGRFTISRDNSKNTLYLQMNSLRAEDTAVYYCAKQDNYAWFDSWGQGTLVTVSS
VL: DIVMTQTPLSLPVTSGEPASISCRSSQSIVHSNGNTFLEWYLKKPGQSPKLLIYKVSSRFSGVPDRFSGSGSGTDFTLKISRVEAEDVGVYYCFQGSHIPWTFGGGTKVEIK
notes: humanized; also called hzmAb5907 LV2aHV0
For B3, the binding result was “binds”.

B4: hzKM5907 LV1bHV7 antibody (antibody, V domains shown)
VH: EVQVLESGGGLVQPGGSLRLSCAASGFTFSRYGMSWVRQAPGKRLEWVASISATFTYTYYTDNVKGRFTISRDNSKNTLYLQMNSLRAEDTGMYYCTRQDNYAWFDSWGQGTLVTVSS
VL: DIVMTQTPLSLPVTSGEPASISCRSSQSIVHSNGNTFLEWYLQKPGQSPKLLIYKVSSRFSGVPDRFSGSGSGTDFTLKISRVEAEDVGVYYCFQGSHIPWTFGGGTKVEIK
notes: humanized; also called hzmAb5907 LV1bHV7
For B4, the binding result is reported as “binds”.

B5: hzKM5907 LV2aHV7 antibody (antibody, V domains shown)
VH: EVQVLESGGGLVQPGGSLRLSCAASGFTFSRYGMSWVRQAPGKRLEWVASISATFTYTYYTDNVKGRFTISRDNSKNTLYLQMNSLRAEDTGMYYCTRQDNYAWFDSWGQGTLVTVSS
VL: DIVMTQTPLSLPVTSGEPASISCRSSQSIVHSNGNTFLEWYLKKPGQSPKLLIYKVSSRFSGVPDRFSGSGSGTDFTLKISRVEAEDVGVYYCFQGSHIPWTFGGGTKVEIK
notes: humanized; also called hzmAb5907 LV2aHV7
As for B5, the binding result was “binds”.

B6: hzKM5907 LV1cHV7 antibody (antibody, V domains shown)
VH: EVQVLESGGGLVQPGGSLRLSCAASGFTFSRYGMSWVRQAPGKRLEWVASISATFTYTYYTDNVKGRFTISRDNSKNTLYLQMNSLRAEDTGMYYCTRQDNYAWFDSWGQGTLVTVSS
VL: DIVMTQTPLSLPVTSGEPVSISCRSSQSIVHSNGNTFLEWYLQKPGQSPQLLIYKVSSRFSGVPDRFSGSGSGTDFTLKISRVEAEDVGVYYCFQGSHIPWTFGGGTKVEIK
notes: humanized; also called hzmAb5907 LV1cHV7
Take B6: the binding result was “binds”.

B7: hzKM5907 LV0HV0 antibody (antibody, V domains shown)
VH: EVQLLESGGGLVQPGGSLRLSCAASGFTFSRYGMSWVRQAPGKGLEWVSSISATFTYTYYTDNVKGRFTISRDNSKNTLYLQMNSLRAEDTAVYYCAKQDNYAWFDSWGQGTLVTVSS
VL: DIVMTQTPLSLPVTSGEPASISCRSSQSIVHSNGNTFLEWYLQKPGQSPQLLIYKVSSRFSGVPDRFSGSGSGTDFTLKISRVEAEDVGVYYCFQGSHIPWTFGGGTKVEIK
notes: humanized; also called hzmAb5907 LV0HV0
Consider B7, for which the binding result is on record as “binds”.

B8: hzKM5907 LV1aHV0 antibody (antibody, V domains shown)
VH: EVQLLESGGGLVQPGGSLRLSCAASGFTFSRYGMSWVRQAPGKGLEWVSSISATFTYTYYTDNVKGRFTISRDNSKNTLYLQMNSLRAEDTAVYYCAKQDNYAWFDSWGQGTLVTVSS
VL: DIVMTQTPLSLPVTSGEPASISCRSSQSIVHSNGNTFLEWYLKKPGQSPQLLIYKVSSRFSGVPDRFSGSGSGTDFTLKISRVEAEDVGVYYCFQGSHIPWTFGGGTKVEIK
notes: humanized; also called hzmAb5907 LV1aHV0
On to B8, for which the binding result was “binds”.

B9: hzKM5907 LV1bHV0 antibody (antibody, V domains shown)
VH: EVQLLESGGGLVQPGGSLRLSCAASGFTFSRYGMSWVRQAPGKGLEWVSSISATFTYTYYTDNVKGRFTISRDNSKNTLYLQMNSLRAEDTAVYYCAKQDNYAWFDSWGQGTLVTVSS
VL: DIVMTQTPLSLPVTSGEPASISCRSSQSIVHSNGNTFLEWYLQKPGQSPKLLIYKVSSRFSGVPDRFSGSGSGTDFTLKISRVEAEDVGVYYCFQGSHIPWTFGGGTKVEIK
notes: humanized; also called hzmAb5907 LV1bHV0
Take B9: the binding result is on record as “binds”.

B10: hzKM5907 LV1cHV0 antibody (antibody, V domains shown)
VH: EVQLLESGGGLVQPGGSLRLSCAASGFTFSRYGMSWVRQAPGKGLEWVSSISATFTYTYYTDNVKGRFTISRDNSKNTLYLQMNSLRAEDTAVYYCAKQDNYAWFDSWGQGTLVTVSS
VL: DIVMTQTPLSLPVTSGEPVSISCRSSQSIVHSNGNTFLEWYLQKPGQSPQLLIYKVSSRFSGVPDRFSGSGSGTDFTLKISRVEAEDVGVYYCFQGSHIPWTFGGGTKVEIK
notes: humanized; also called hzmAb5907 LV1cHV0
As for B10, the binding result is “binds”.

B11: hzKM5907 LV0HV7 antibody (antibody, V domains shown)
VH: EVQVLESGGGLVQPGGSLRLSCAASGFTFSRYGMSWVRQAPGKRLEWVASISATFTYTYYTDNVKGRFTISRDNSKNTLYLQMNSLRAEDTGMYYCTRQDNYAWFDSWGQGTLVTVSS
VL: DIVMTQTPLSLPVTSGEPASISCRSSQSIVHSNGNTFLEWYLQKPGQSPQLLIYKVSSRFSGVPDRFSGSGSGTDFTLKISRVEAEDVGVYYCFQGSHIPWTFGGGTKVEIK
notes: humanized; also called hzmAb5907 LV0HV7
Take B11: the binding result was “binds”.

B12: hzmAb5-06 LV2aHV17 antibody (antibody, V domains shown)
VH: QVQLQQSGPGLVKPSQTLSITCTVSGFSLNNYGVHWVRQPPGKGLEWLGVIWSAGTTVYNAAAISRLTISKDDSKSQVSFKMSSLTAADTAIYYCAKDGSRYYTAMDYWGQGTLVTVSS
VL: DIVMTQSPLSLPVTLGEPASISCRSSQSLVHRNGITFFHWYLQKPGQSPKLLIYKISNRFSGVPDRFSGSGSGTDFTLKISRVEAEDVGVYYCSQGTHVPPTFGQGTKVEIK
notes: humanized
B12: the binding result is “binds”.

B13: hzmAb5-06 LV4HV17 antibody (antibody, V domains shown)
VH: QVQLQQSGPGLVKPSQTLSITCTVSGFSLNNYGVHWVRQPPGKGLEWLGVIWSAGTTVYNAAAISRLTISKDDSKSQVSFKMSSLTAADTAIYYCAKDGSRYYTAMDYWGQGTLVTVSS
VL: DIVMTQSPLSLPVTLGEPASISCRSSQSLVHRNGITFFHWYLQKPGQSPKLLIYKISNRFSGVPDRFSGSGSGTDFTLKISRVEAEDVGVYFCSQGTHVPPTFGQGTKLEIK
notes: humanized
For the molecule B13, the binding result is listed as “binds”.

B14: hzmAb5-06 LV5HV17 antibody (antibody, V domains shown)
VH: QVQLQQSGPGLVKPSQTLSITCTVSGFSLNNYGVHWVRQPPGKGLEWLGVIWSAGTTVYNAAAISRLTISKDDSKSQVSFKMSSLTAADTAIYYCAKDGSRYYTAMDYWGQGTLVTVSS
VL: DVVMTQSPLSLPVTLGEPASISCRSSQSLVHRNGITFFHWYLQKPGQSPKLLIYKISNRFSGVPDRFSGSGSGTDFTLKISRVEAEDVGVYFCSQGTHVPPTFGQGTKLEIK
notes: humanized
With B14, the binding result is reported as “binds”.

B15: hzmAb5-06 LV1bHV17 antibody (antibody, V domains shown)
VH: QVQLQQSGPGLVKPSQTLSITCTVSGFSLNNYGVHWVRQPPGKGLEWLGVIWSAGTTVYNAAAISRLTISKDDSKSQVSFKMSSLTAADTAIYYCAKDGSRYYTAMDYWGQGTLVTVSS
VL: DIVMTQSPLSLPVTLGEPASISCRSSQSLVHRNGITFFHWYLQKPGQSPQLLIYKISNRFSGVPDRFSGSGSGTDFTLKISRVEAEDVGVYYCSQGTHVPPTFGQGTKVEIK
notes: humanized
For the molecule B15, the binding result was “binds”.

B16: hzmAb5-06 LV1aHV17 antibody (antibody, V domains shown)
VH: QVQLQQSGPGLVKPSQTLSITCTVSGFSLNNYGVHWVRQPPGKGLEWLGVIWSAGTTVYNAAAISRLTISKDDSKSQVSFKMSSLTAADTAIYYCAKDGSRYYTAMDYWGQGTLVTVSS
VL: DIVMTQSPLSLPVTPGEPASISCRSSQSLVHRNGITFFHWYLQKPGQSPKLLIYKISNRFSGVPDRFSGSGSGTDFTLKISRVEAEDVGVYYCSQGTHVPPTFGQGTKVEIK
notes: humanized
On to B16, for which the binding result is “binds”.

B17: hzmAb5-06 LV2bHV17 antibody (antibody, V domains shown)
VH: QVQLQQSGPGLVKPSQTLSITCTVSGFSLNNYGVHWVRQPPGKGLEWLGVIWSAGTTVYNAAAISRLTISKDDSKSQVSFKMSSLTAADTAIYYCAKDGSRYYTAMDYWGQGTLVTVSS
VL: DIVMTQSPLSLPVTPGEPASISCRSSQSLVHRNGITFFHWYLQKPGQSPKLLIYKISNRFSGVPDRFSGSGSGTDFTLKISRVEAEDVGVYFCSQGTHVPPTFGQGTKVEIK
notes: humanized
With B17, the binding result was “binds”.

B18: hzmAb5-06 LV0HV17 antibody (antibody, V domains shown)
VH: QVQLQQSGPGLVKPSQTLSITCTVSGFSLNNYGVHWVRQPPGKGLEWLGVIWSAGTTVYNAAAISRLTISKDDSKSQVSFKMSSLTAADTAIYYCAKDGSRYYTAMDYWGQGTLVTVSS
VL: DIVMTQSPLSLPVTPGEPASISCRSSQSLVHRNGITFFHWYLQKPGQSPQLLIYKISNRFSGVPDRFSGSGSGTDFTLKISRVEAEDVGVYYCSQGTHVPPTFGQGTKVEIK
notes: humanized
On to B18, for which the binding result is “binds”.
